This is an account of results in the nanobody polyreactivity screen of Harvey et al. (2022).

A short description of this series: yeast display, Sf9 membrane polyspecificity reagent, FACS + sequencing; frameworks hold sequencing errors. The method, boiled down: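 A synthetic nanobody library was expressed on Saccharomyces cerevisiae BJ5465 by galactose induction for 36–48 hours. The library was stained for 1 hour at 4 °C with 10% biotinylated, detergent-solubilized Sf9 membrane reagent and enriched with streptavidin microbeads before FACS. Low and high (top ~1%) gates were set on anti-HA fluorescence for expression and streptavidin fluorescence for reagent binding, and each polyreactivity label reflects the gate of origin.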
“QVQLVESVGGLVQAGGSLRLSCAASGSIISFNAMGWYRQAPRKERELVASISRNGGSSYYADSVKGRFTISRDNAKNTVYLQMNSLKPEDTAVYYCAVKVRNRRYGYWGQGTQVTVSS”: the “polyreactivity (PSR sort gate)” value is “high polyreactivity”. With “QVQLVESVGGLVQAGGSLRLSCAASGSILWLYAMGWYRQAPGKERELVAAISGSGRTNYADSEKGLFTISRDNAKNTVYLQMNSQKPEDTAVYYCARVHGTSESKYYYWGQGTQVTVSL”, the “polyreactivity (PSR sort gate)” value is “low polyreactivity”. For the sequence “QVQLVESVGGLVQAGGSLRLSCAASGSNFRGYAMGWYRQAPGKERELVAAISWSGVSTYYADSVKGRFTISRDNAKNTVYLQMNSLKPEDTAVYDCAAGYSSAYLRFGYWGQGTQVTVSS”, the “polyreactivity (PSR sort gate)” value was “low polyreactivity”.

For “QVQLVESVGGLVQAGGSLRLSCAASGSTFADYVMGWYRQAPGKERELVAAITSSGGSTYYADSVNGRFTISRDNAKNTVYLQMNSLKPEDTAVYYCAAQQSPSVDYWGQGTQVTVSS”, the “polyreactivity (PSR sort gate)” value is “low polyreactivity”.

Consider “QVQLVESVGGLVQAGGSLRLSCAASGSTFGFNAMGWYRQAPGKERELVAAIRRSDSSTYYADSVKGRFTISRDNAKNTVYLQMNSLKPEDTAVYYCAADVWVSWLLFKYEYWGQGTQVTVSS”, for which the “polyreactivity (PSR sort gate)” value is given as “low polyreactivity”.

Turning to “QVQLVESVGGLVQAGGSLRLSCAASGSTFGYYAMGWYRQAPGKERELVATITWSGGSTNYGDSVKGRFTISRDNEKNTVYLQMKSLKPEDTAVYYCAADLKYWYFGLAFIEVDYWGQGTQVTVSS”, the “polyreactivity (PSR sort gate)” value was “low polyreactivity”. In the case of “QVQLVESVGGLVQAGGSLRLSCAASGSTFIQYAMGRYRHAPGKERELVASNSRSAGSTYYADSVKGRFTISRDNAKNTVYLQMNSLKPEDTAVYYCAADSYYLGYYLGSYSWDYGYWGQGTQVTVSS”, the “polyreactivity (PSR sort gate)” value is reported as “high polyreactivity”. For the sequence “QVQLVESVGGLVQAGGSLRLSCAASGSTFPVYVMGWYRQAPGKERELVAAITRIGGSTYYADSVKGRFTISRDNAKNTVYLQMNSLKPEDTAVYYCAAGGTARDDSWGQGTQVTVSS”, the “polyreactivity (PSR sort gate)” value is reported as “low polyreactivity”.

For the sequence “QVQLVESVGGLVQAGGSLRLSCAASGSTFQGNAMGWYIQAPGKERELVAAISRSGGSTYADSVKGRFTISRDNAKNTVYLQMNSLKPEDTAVYYCAAYSGVGYLWFDYWGLGTQVTVSS”, the “polyreactivity (PSR sort gate)” value is on record as “low polyreactivity”.

Consider “QVQLVESVGGLVQAGGSLRLSCAASGSTFRRYAMGWSRQAPGKERELVASISRSGGSTYYADSVKGRFTISRDNAKNTVYLQMNSLKPEDTAVYYCAKKPYKSAYDYSSAYDYWGQGTQVTVSS”, for which the “polyreactivity (PSR sort gate)” value was “high polyreactivity”. “QVQLVESVGGLVQAGGSLRLSCAASGSTFSSNAMGWYRQAPGKERELVAAINRTGNTYYADSVKGRFTISRDNAKNTVYLQMNSLKPEDTAVYYCNTDLNLYRGGGYWGQGTQVTVSS”: the “polyreactivity (PSR sort gate)” value is reported as “low polyreactivity”. The entry for “QVQLVESVGGLVQAGGSLRLSCAASGSTFYGYAMGWYRQAPGKETELVAAINWSGGSTFYADSVKGRFTISRDNAKNTVYLKMNSLKPEDTAVYYCNKAWRGSVSRRYYYWGQGTQVTVSS” is “high polyreactivity”; for “QVQLVESVGGLVQAGGSLRLSCAASGSTFYNNAMGWYRQAPGKERELVAAISSGGGTYYADSVKGRFTISRDNAMNTVYLQMNSLKPEDTAVYYCAADFANTTHWGRIKRNDYWGQGTQVTVSS” it is “low polyreactivity”. The entry for “QVQLVESVGGLVQAGGSLRLSCAASGSTLFYNAMGWYRQAPGKERELVATISGGGVSTYYADSVKGRFTISRDNAKNSVYLQMNSLNPEDTAVYYCAAAGWSEGGYDYWGQGTQVTVSS” is “low polyreactivity”; for “QVQLVESVGGLVQAGGSLRLSCAASGYIFDRNAMGWYRQAPGKERELVAAITKRGGITYYADSVKGRFTISRDNAKNTVYLQMNSLKPEDTAVYYCNALARSSRYDYWGQGTQVTVSS” it is “low polyreactivity”; for “QVQLVESVGGLVQAGGSLRLSCAASGYTFYLYAMGWYRQAPGKERELVAAISYSSGGTYYADSVKGRFTISRDNAKNTVYLQMNSLKPEDTAVYYCAADAYDGEGTYPFEYWGQGTQVTVSS” it is “low polyreactivity”. Turning to “QVQLVESVGGLVQAGGSLRLSCDASGSIFASYAMGGYRQAPGKERELVAAISTSGVSTHYADSVNGRFTISRENAKNTVYLQLNSLKQEDTAVYYCAATPGYKRYYWGQGTQVTVSS”, the “polyreactivity (PSR sort gate)” value is reported as “high polyreactivity”. For the sequence “QVQLVESVGGLVQAGGSLRLSCGSSGSIFPYNAMGWYRQAPGKERELVATISSGGSTNYADSVKGRFTISRDNAKNTFYLQMNSLKPEDTAFYYCAADVIVFYYAPNYCGDIEYGYWGQGTQVTVSS”, the “polyreactivity (PSR sort gate)” value is given as “low polyreactivity”. As for “QVQLVESVGGLVQAGGSLRLSCSASGRTFAFYAMGWYRQAPGKVRELVASISSTGDRTYYADSVKGRFTISRDNAKNTVYLQMNSLIPEDTAVYYCAARWRYTYYYWGQGTQVTVSS”, the “polyreactivity (PSR sort gate)” value is reported as “high polyreactivity”. “QVQLVESVGGLVQAGGSLRLSFAASGSTFDVYAMGWYRQAPGKERELVAAIRSSGGSTFYADSVKGRFTISRDNAKNIVYLQMNSLNPEDTAVYYCAARSFVVSGYNKYYEYGYWGQGTQVTVSS”: the “polyreactivity (PSR sort gate)” value is given as “low polyreactivity”.

Regarding “QVQLVESVGGLVQAGGSLRLSSAASGFTFTRNTMGWYRQAPGKERELVAAITRGGSTNYADSVKGRFTISLDTAKNPVYLQMHSLKPEDTAVYYCAADAPFDSPYNYWGQGTQVTVSS”, the “polyreactivity (PSR sort gate)” value is listed as “low polyreactivity”. As for “QVQLVESVGGLVQAGGSLRLSSAASGRIFVFNAMGWYRQAPGKERELVAAISRRGGSTYYADSVKGRFTISRDNAKNTVYLQMNSLNPEVTAVYYCAAVYPDYSSARYDYWGQGTQVTVSS”, the “polyreactivity (PSR sort gate)” value was “high polyreactivity”.

Take “QVQLVESVGGLVQAGGSLRLTCAASGIILHDNTMGWYRQAPGKEREVVAAITSDGSTNYADSVKGRFTISRDNAKNTVYLQMNSLKPEDTAVYYCNTDDGPYTEFDYWGQGTQVTVSS”: the “polyreactivity (PSR sort gate)” value is “low polyreactivity”. For “QVQLVESVGGLVQAGGSLRLTCAASGLILRRYAMGWYRQAPGKEELVAAITSDASTYYADSVKGRFTISRYNAKNTVYLQMNSLKPEDPAVYYCAADTYDNDYYYWGQGTQVTVSS” the value was “high polyreactivity”. Turning to “QVQLVESVGGLVQAGGSLRLTCVASGRIFLTYAMGWYRQAPGKERELVAAISYSGASTYYADSVKGRFTISRDNAKNTVYLQMNSLKPEDTAVYYCATERVGTPRMNYWGQGTQVTVSS”, the “polyreactivity (PSR sort gate)” value is reported as “high polyreactivity”. Turning to “QVQLVESVGGLVQARGSLRLICAASVRIIRGNAMGWYRQAPGKERELVAAISRRSGSTYYADSVKGRFTISRDNAKNTVYLQMISLKPEDTAVYYCAATCSLGDFRYDYWGQGTQVSVSS”, the “polyreactivity (PSR sort gate)” value is “high polyreactivity”. For “QVQLVESVGGLVQEGGSLRLICAASGSIFYTYAMGWYRQAPGKERELVAAIRSTGRTNYADSVKGRFTISRDNAKNTVYLHMNSLKPEDTGVYYCAAGTNYGKLRIRFDYWGQGTQVTVSS”, the “polyreactivity (PSR sort gate)” value is on record as “low polyreactivity”. The entry for “QVQLVESVGRLVQAGGSLRLSCAASGSTITPNAMGWYRQAPGKERELVAAINWSGTSTYYADSVKGRFTISRDNEKNTVYLQMNSLKQEDTAVYSCAASYPDVDYDYWGHGTQVTVSS” is “high polyreactivity”. Regarding “QVQLVESVGVLVKAGGSLRLSCAASGRIYSSYALGWYRQAPGKEREFVAYISNSGGSTYYADSVKGRFTISRDNAKNTVYLQMNILKPEDTAVYYCAAAVYSYTYRYYYWGQGTQLTVSS”, the “polyreactivity (PSR sort gate)” value is on record as “high polyreactivity”. In the case of “QVQLVESVRGLFQAGGSLRLSCAASGFTFYIYDMGWYRQAPGTERELVAAITWSGGRTYYADSVKGRFTISRDNAKNTVYFQMNSLKPEDTAVYYCAASYPGLSFHKYEYWGQGTQLTVSS”, the “polyreactivity (PSR sort gate)” value was “high polyreactivity”.

As to “QVQLVESVVGLVQAGGSLRLSCAASGRIFFAYTMGWYRQAPGKERELVAAISSSGSTYYADSVKGRFTISRDNAKNTVYLQMNSLKPEDTAVYYLRVQRRAYRYDYWGQGTKVTVSS”, the “polyreactivity (PSR sort gate)” value is “high polyreactivity”.

In the case of “QVQLVESVVGLVQAGLSLRLSSAASGSIFSGYMGWYRHAPGKERELVATITSGGSTYADSVKGRFTISRDNAKNTVYLQMNSLKPEDTAVYYCAADVSFYTSKYDYWGLGTQVTVSS”, the “polyreactivity (PSR sort gate)” value is listed as “low polyreactivity”. As to “QVQLVESVVGLVQAGVSLRLSCAASGFIVYANAMGWYRQAPGKERELVAAISRGTSTYYADSVKGRFTISRDNAKNTVYLQMTSLKPEDTAVYYCATYYYRPWGGYYWGQGTQVTVSS”, the “polyreactivity (PSR sort gate)” value was “high polyreactivity”.

“QVQLVESWAGIVQAGGSLRVSCAASGSTFDRYAMGWYRQAPGKERELVAAISWSAGRTYYADSVKGRFTISRDNAKNTVYLQMNSLKPDDTAVYYCAADQIVSGTYDYYWGQGTHVTVSS”: the “polyreactivity (PSR sort gate)” value is “low polyreactivity”. For “QVQLVESWEGLVQAGGRLRLSCAASGSIFRPYTMGWYRQAPGKERELVATISSTGITNYADSVKGRFTISRDNAKITVYLQMNSLKPEVTAVYYCAAGLWFSYDYWGQGTQVTVSS” the value was “high polyreactivity”; for “QVQLVESWGGLDQAGGSLRLSCAASGRNLYWNTMGWYRQPPGKETQLVASITQNVGSTYYADSVKGRFTISRDFAKNTVYLQMNSLKPEDTAVYDCAAKRLYWLRYGYWGQGTQDTVSS”, “low polyreactivity”.

On to “QVQLVESWGGLFQAGGSLRLSCAASGSIFVWYAMGRSRQAPGKEMELVAVISYGGDRTSYADSVKGRFTISRDNAKNTVYLQMNSLKPEDTAVYYCAARPFYRGYYYWGQGTQVTVSS”, for which the “polyreactivity (PSR sort gate)” value is “high polyreactivity”.

For “QVQLVESWGGLVQAGCSLRLRCAASGRIFGPYAMGWYRQARGQERELVAAISRSGGSTYYADSVKGRFTISRDNAKNTVYLQMKSLNPEDTAVYYCNARFVIYSRVDYWGQGTQVTVSS”, the “polyreactivity (PSR sort gate)” value is “low polyreactivity”. For “QVQLVESWGGLVQAGGSLRLSCAASGFTFTWYAMGWSRQAPGKERELLAAITSSGGSTYYADSVKGRFTISRDNAKNTVYLQMNSLKPEDTAVYYCAAKSYWSGYFVGYEYWGQGTQVTVSS”, the “polyreactivity (PSR sort gate)” value is on record as “high polyreactivity”.

On to “QVQLVESWGGLVQAGGSLRLSCAASGGTFSANAMGWYRQAPGKERELVAAISTSGGSTHYADSVKGRFTISRDSAKNTVYLQMNSLNPEDTAVYYCAARLYSYRRQYGYWGHGTQVTVSS”, for which the “polyreactivity (PSR sort gate)” value is recorded as “high polyreactivity”. For “QVQLVESWGGLVQAGGSLRLSCAASGINFQNYDMGWYRQAPGKERELVAAINGSGGSTYYADSVKGRFTISRDNANNTVYLQMNSLKPEDTAVYYCNAVWEYYGKSDYWGQGTQVTVSS”, the “polyreactivity (PSR sort gate)” value was “low polyreactivity”.
